Like-named read-outs stand apart in the source and are kept apart here.
B1: H1H27754P-N297Q (antibody, V domains shown)
VH: EVQLVESGGGLVQPGGSLRLSCAASGFTFRTYAMTWVRQAPGKGLDWVSAITGDGGNTYYADSVKGRFTISRDNSKNTLYLQMNSLRAEDTAIYYCAKDQRFSFALYYFDYWGQGTLVTVSS
VL: DIQMTQSPSSVSASVGDRVTITCRASQGISSWLAWYQQKPGNAPKLLIYAAFSLQSGVPSRFSGSGSGTDFTLTISSLQPEDFATYYCQQANNFPWTFGQGTKVEIKR
B2: H1H27731P-N297Q (antibody, V domains shown)
VH: QLQLQESGPGLVKPSETLSLTCTVSGGSISRISYYWGWIRQPPGKGLEWIGSIYDSGSTYYNPSLKSRVTISIDTSKNQFSLKLSSVTAADTAVYYCVRYSSSSAFAFDYWGQGTLVTVSS
VL: DIQMTQSPSSVSASVGDRVTITCRASQGISSWLAWYQQKPGKAPKLLIYAASSLQSGVPSRFSGSGSGTDFTLTISSLQPEDFATYYCQQANSFPFTFGPGTKVDIKR
B3: H1H27734P-N297Q (antibody, V domains shown)
VH: EVQLVESRGGLVQPGGSLRLSCAASGFTFSSYAMSWVRQAPGKGLEWVSAISGSGGSTFYADSVKGRFTISRDNSKNTVYLQMNSLRAEDTAVYYCAKALVLRFLEWLGDYWGQGTLVTVSS
VL: DIQMTQSPSTLSASVGDRVTITCRASQSISSWLAWFQQKPGKAPKLLIYKASSLESGVPSRFSGSGSGTEFTLTISSLQPDDFATYYCQQYKSYWTFGQGTKVEIKR
B4: H1H27739P-N297Q (antibody, V domains shown)
VH: EVQLVESGGGLVQPGGSLRLSCTASGFTFSSYAMSWVRQAPGKGLEWVSAISGTGSSTYFTDSVKGRFAISRDNSKNTLYLQMNSLRAEDTAVYYCAKDGEWLSTVTLFDYWGQGTLVTVSS
VL: EIVMTQSPATLSVSPGERATLSCRASQSVSSNLAWYQQKPGQAPRLLIYGASTRATGIPARFSGSGSGTDFTLTISSLQSEDFALYYCQQYFIWPPHPTFGPGTKVDIKR
B5: H1H27729P-N297Q (antibody, V domains shown)
VH: QVQLVESGGGLVKPGGSLRLSCAASGFIFSDYYMSWIRQAPGKGLEWVSYISSSGTTIYGDSVKGRFTMSRDNAKNSLYLQMNSLRAEDTAVYYCARNYALFDYWGQGTLVTVSS
VL: DIQMTQSPSSLSASVGDRVTITCQASQDISKYLNWYQQKPGKAPKLLIYYTSNLETGVPSRFSGSGSGTDFTFTISSLQPEDIATYYCHQSDYLPFTFGPGTKVDIKR
B6: H1H21234N (antibody, V domains shown)
VH: QVQLQESGPGLVKPSETLSLTCTVTGGSISRNYWSWIRQPPGKGLEWIGYIYYSGSIDYNPSLKSRVTISVDTSKNQFSLKLSSMTAADTAVYYCARDRWNWKYGMDVWGQGTTVIVSS
VL: EIVLTQSPGTLSLSPGERATLSCRASQTVRNNYLAWYHQKPGQAPRLLIYGASSRATGIPDRFSGSGSGTDFTLTISRLEPEDFTVYYCHQYGNSPWTFGQGTKMEIKR
B7: H1H21234N-N297Q-LP 13 (conjugate)
VH: QVQLQESGPGLVKPSETLSLTCTVTGGSISRNYWSWIRQPPGKGLEWIGYIYYSGSIDYNPSLKSRVTISVDTSKNQFSLKLSSMTAADTAVYYCARDRWNWKYGMDVWGQGTTVIVSS
VL: EIVLTQSPGTLSLSPGERATLSCRASQTVRNNYLAWYHQKPGQAPRLLIYGASSRATGIPDRFSGSGSGTDFTLTISRLEPEDFTVYYCHQYGNSPWTFGQGTKMEIKR
B8: H1H21234N-N297Q (antibody, V domains shown)
VH: QVQLQESGPGLVKPSETLSLTCTVTGGSISRNYWSWIRQPPGKGLEWIGYIYYSGSIDYNPSLKSRVTISVDTSKNQFSLKLSSMTAADTAVYYCARDRWNWKYGMDVWGQGTTVIVSS
VL: EIVLTQSPGTLSLSPGERATLSCRASQTVRNNYLAWYHQKPGQAPRLLIYGASSRATGIPDRFSGSGSGTDFTLTISRLEPEDFTVYYCHQYGNSPWTFGQGTKMEIKR

Key:
[1] = target: T1, His9-hMSR1 (human MSR1 extracellular domain) (Homo sapiens, UniProt P21757); experiment: Biacore surface plasmon resonance binding kinetics; settings: 25° C.; for kd (s^−1) / kd: * = no dissociation observed, kd fixed at 1.00E−05; for Kd: calculated from the kinetic rates, read-out: KD (Molar); for ka: His9-hMSR1 binding to captured antibody
T1 construct: human MSR1 extracellular domain expressed with a N-terminal nonahistidine tag; purchased R&D Systems 2708-MS
T1 sequence (P21757 77-451 limits assumed): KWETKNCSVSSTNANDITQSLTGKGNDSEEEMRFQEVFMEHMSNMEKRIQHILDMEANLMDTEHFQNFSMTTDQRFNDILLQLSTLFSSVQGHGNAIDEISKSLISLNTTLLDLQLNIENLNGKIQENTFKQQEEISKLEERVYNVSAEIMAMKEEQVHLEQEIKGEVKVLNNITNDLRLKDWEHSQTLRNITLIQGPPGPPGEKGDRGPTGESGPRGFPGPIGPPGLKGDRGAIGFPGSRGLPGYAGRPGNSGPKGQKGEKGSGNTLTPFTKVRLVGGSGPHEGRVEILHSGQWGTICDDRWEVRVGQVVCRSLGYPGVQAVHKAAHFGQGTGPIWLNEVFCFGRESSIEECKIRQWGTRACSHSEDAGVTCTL
Method: The MSR1 antibodies disclosed herein were conjugated to various liver X receptor (LXR) payloads. This example describes how equilibrium dissociation constant (KD) values for human MSR1 reagents binding to human anti-MSR1 antibody-drug conjugates and their corresponding unconjugated parental antibodies were determined using a real-time surface plasmon resonance-based Biacore T200 biosensor.
All binding studies were performed in 10 mM HEPES, 300 mM NaCl, 3 mM EDTA, and 0.05% v/v Surfactant Tween-20, pH 7.4 (HBS-ET) running buffer at 25° C. The Biacore CM4 sensor chip surface was first derivatized by amine coupling with the goat anti-human Fcγ specific polyclonal antibody (Jackson ImmunoResearch Laboratories, Cat # BR-1008-39) to capture anti-MSR1 monoclonal antibodies. Binding studies were performed on human MSR1 extracellular domain expressed with a N-terminal nonahistidine tag (His9-hMSR1; R&D Systems, Cat #2708-MS).
The association rate (ka) and dissociation rate (kd) were determined by fitting the real-time binding sensorgrams to a 1:1 binding model with mass transport limitation using Scrubber 2.0c curve-fitting software. Binding dissociation equilibrium constant (KD) and dissociative half-life (t½) were calculated from the kinetic rates as: […]

THP1/LXR-Luc cells = experiment: LXR-luciferase reporter bioassay in PMA-differentiated THP1/LXR-Luc cells; format: cell-based, human; settings: for S/N (signal to noise, ratio of RLU of standard one over RLU of standard eight) / EC50: PMA-differentiated THP1/LXR-Luc cells, 48 hours; for S/N (signal to noise, ratio of RLU of standard one over RLU of standard eight): luciferase activity; for EC50: luciferase activity (One-Glo), 10-point dose response 100 nM to 0.01 nM
Source text: To test the efficacy of anti-MSR1 antibody-LXR conjugates in vitro, a cell-based LXR responsive luciferase reporter assay was developed. To generate the assay cell line, a LXR regulated luciferase reporter gene [Cignal Lenti LXR Reporter (luc) kit (Qiagen, Cat # CLS-001L)] was transduced into THP1 cells, and cells were selected for two weeks in puromycin. The lentivirus expresses the firefly luciferase gene under the control of a minimal CMV promoter and tandem repeats of the LXR transcriptional response element. The resulting cell line is referred to as THP1/LXR-Luc cells.
THP1/LXR-Luc cells were seeded onto 96 well plates at 40,000 cells/well in media containing RPMI supplemented with 10% FBS and pencillin/streptomycin and subsequently differentiated with 200 nM Phorbol Myristate Acetate (PMA) for 3 days. After the 3-day differentiation period, three-fold serial dilutions of antibody drug conjugates, unconjugated antibodies, or free payloads in fresh media were added to the cells at final concentration ranging from 100 nM to 0.01 nM. Media alone served as a blank control. Forty-eight hours later, luciferase activity was determined after the addition of One-Glo™ reagent (Promega, Cat # E6130) to each well. Relative light units (RLUs) were measured on a Victor luminometer (PerkinElmer) and EC50 values were determined using a four-parameter logistic equation over a 10-point dose response curve (GraphPad Prism). The signal to noise (S/N) was determined by calculating the ratio of RLU of standard one over RLU of standard eight for each of the unconjugated anti-MSR1 antibodies or free payloads. “LP #” represents a linker-payload for which the corresponding structures are provided elsewhere herein, and “P #” represents a payload for which the corresponding structures are provided elsewhere herein.

THP-1 cells = experiment: BODIPY-cholesterol efflux in THP-1 macrophages; format: cell-based, human
Method: The ability of anti-MSR1 antibody-LXR conjugates to activate cholesterol efflux in a human macrophage cell line (THP-1; ATCC Catalog # TIB-202), was assessed using a fluorescent cholesterol analog.
Cells were differentiated into macrophages by addition of 100 nM Phorbol-12 myristate 13-acetate (Sigma, Catalog #P 8139) to the media and subjected to further incubation for 96 hours.
Percentage of BODIPY-cholesterol efflux was calculated using the following formula: [fluorescence in acceptor media/(fluorescence in acceptor media+fluorescence in cell lysate)]×100. Table 15 provides activated cholesterol efflux for the tested articles, and FIG. 15 illustrates the data in graph form.

Molecule	Kd [1]	ka [1]	kd [1]	further results
B1	0.0499 nM	200000 M⁻¹ s⁻¹	–	kd (s^−1) [1]: ≤ 1.00E−05* s^−1
B2	0.0855 nM	117000 M⁻¹ s⁻¹	1e-05 s⁻¹	–
B3	7.72 nM	77200 M⁻¹ s⁻¹	0.000596 s⁻¹	–
B4	4.68 nM	119000 M⁻¹ s⁻¹	0.000555 s⁻¹	–
B5	8.67 nM	105000 M⁻¹ s⁻¹	0.000906 s⁻¹	–
B6	–	–	–	stimulation of the THP/Luc cells (THP1/LXR-Luc cells; 48-hour time point, in words): did not have any impact
B7	–	–	–	S/N (signal to noise, ratio of RLU of standard one over RLU of standard eight) (THP1/LXR-Luc cells): 9.6; EC50 (THP1/LXR-Luc cells; read-out: EC50): 0.98 nM
B8	0.0454 nM	220000 M⁻¹ s⁻¹	–	S/N (signal to noise, ratio of RLU of standard one over RLU of standard eight) (THP1/LXR-Luc cells): No activation; EC50 (THP1/LXR-Luc cells): No activation; Maximum efflux (%) (THP-1 cells; 24-hour treatment, BODIPY-cholesterol efflux): 18.7%; cholesterol efflux (THP-1 cells; after 24 hours, in words): did not demonstrated any measurable cholesterol efflux; kd (s^−1) [1]: ≤ 1.00E−05* s^−1
